Assay results as given in publication PMC11387744 (Communications Biology, 2024).

biological target: T1, KDM2B^F-box-LRRs/SKP1 dimer (UniProt Q8NHM5 1059-1336; P63208 2-163); test: ITC
T1 sequence (Q8NHM5 1059-1336, chain 1 of 2): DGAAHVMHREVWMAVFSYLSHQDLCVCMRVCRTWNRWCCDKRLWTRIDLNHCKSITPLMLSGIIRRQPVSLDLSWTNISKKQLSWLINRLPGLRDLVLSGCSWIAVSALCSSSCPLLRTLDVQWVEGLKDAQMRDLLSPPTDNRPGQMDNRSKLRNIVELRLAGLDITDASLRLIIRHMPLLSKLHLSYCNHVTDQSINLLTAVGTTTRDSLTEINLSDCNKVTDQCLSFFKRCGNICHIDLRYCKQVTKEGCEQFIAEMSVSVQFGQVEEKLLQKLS
T1 sequence (P63208 2-163, chain 2 of 2): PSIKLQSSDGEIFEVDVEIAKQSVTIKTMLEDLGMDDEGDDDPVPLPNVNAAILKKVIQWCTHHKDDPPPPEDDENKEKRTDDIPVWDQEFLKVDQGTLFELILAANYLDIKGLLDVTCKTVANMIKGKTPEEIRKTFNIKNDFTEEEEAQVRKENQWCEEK

Binder	Kd [nM]
BCOR^N1591/PCGF1^RAWUL dimer (complex) chain 1: DDDASGTWDFYGSSVCEPDDESGYDVLANPPGPEDQDDDDDAYSDVFEFEFSETPLLPCYNIQVSVAQGPRNWLLLSDVLKKLKMSSRIFRCNFPNVEIVTIAEAEFYRQVSASLLFSCSKDLEAFNPESKELLDLVEFTNEIQTLLGSSVEWLHPSDLASDNYW chain 2: LPFSSFDHSKAHYYRYDEQLNLCLERLSSGKDKNKSVLQNKYVRCSVRAEVRHLRRVLCHRLMLNPQHVQLLFDNEVLPDHMTMKQIWLSRWFGKPSPLLLQYSVK	240
BCOR^N1607/PCGF1^RAWUL dimer (complex) chain 1: EPDDESGYDVLANPPGPEDQDDDDDAYSDVFEFEFSETPLLPCYNIQVSVAQGPRNWLLLSDVLKKLKMSSRIFRCNFPNVEIVTIAEAEFYRQVSASLLFSCSKDLEAFNPESKELLDLVEFTNEIQTLLGSSVEWLHPSDLASDNYW chain 2: LPFSSFDHSKAHYYRYDEQLNLCLERLSSGKDKNKSVLQNKYVRCSVRAEVRHLRRVLCHRLMLNPQHVQLLFDNEVLPDHMTMKQIWLSRWFGKPSPLLLQYSVK	270

Continued, values first:

Kd [nM]	Binder
5930	BCOR^N1624/PCGF1^RAWUL dimer (complex) chain 1: EDQDDDDDAYSDVFEFEFSETPLLPCYNIQVSVAQGPRNWLLLSDVLKKLKMSSRIFRCNFPNVEIVTIAEAEFYRQVSASLLFSCSKDLEAFNPESKELLDLVEFTNEIQTLLGSSVEWLHPSDLASDNYW chain 2: LPFSSFDHSKAHYYRYDEQLNLCLERLSSGKDKNKSVLQNKYVRCSVRAEVRHLRRVLCHRLMLNPQHVQLLFDNEVLPDHMTMKQIWLSRWFGKPSPLLLQYSVK
250	BCOR^N1594/PCGF1^RAWUL dimer (complex) chain 1: ASGTWDFYGSSVCEPDDESGYDVLANPPGPEDQDDDDDAYSDVFEFEFSETPLLPCYNIQVSVAQGPRNWLLLSDVLKKLKMSSRIFRCNFPNVEIVTIAEAEFYRQVSASLLFSCSKDLEAFNPESKELLDLVEFTNEIQTLLGSSVEWLHPSDLASDNYW chain 2: LPFSSFDHSKAHYYRYDEQLNLCLERLSSGKDKNKSVLQNKYVRCSVRAEVRHLRRVLCHRLMLNPQHVQLLFDNEVLPDHMTMKQIWLSRWFGKPSPLLLQYSVK
850	BCOR^N1612/PCGF1^RAWUL dimer (complex) chain 1: SGYDVLANPPGPEDQDDDDDAYSDVFEFEFSETPLLPCYNIQVSVAQGPRNWLLLSDVLKKLKMSSRIFRCNFPNVEIVTIAEAEFYRQVSASLLFSCSKDLEAFNPESKELLDLVEFTNEIQTLLGSSVEWLHPSDLASDNYW chain 2: LPFSSFDHSKAHYYRYDEQLNLCLERLSSGKDKNKSVLQNKYVRCSVRAEVRHLRRVLCHRLMLNPQHVQLLFDNEVLPDHMTMKQIWLSRWFGKPSPLLLQYSVK

biological target: T1, KDM2B^F-box-LRRs/SKP1 dimer; test: ITC; remark: another data set of the same source

Kd [nM]	Binder
6350	BCOR^ANK-linker (residues 1461-1635) (domain or fragment, UniProt Q6W2J9 1461-1635, looked up) NAGETLLQRAARLGYEEVVLYCLENKICDVNHRDNAGYCALHEACARGWLNIVRHLLEYGADVNCSAQDGTRPLHDAVENDHLEIVRLLLSYGADPTLATYSGRTIMKMTHSELMEKFLTDYLNDLQGRNDDDASGTWDFYGSSVCEPDDESGYDVLANPPGPEDQDDDDDAYSD
